{"source": "paper PMC2902421", "about": "“Molecular cloning and biochemical characterization of a novel erythrose reductase from Candida magnoliae JH110” (Microbial Cell Factories, 2010)", "proteins": {"B1": {"name": "CmER (C. magnoliae JH110 erythrose reductase; CmER2 in Table 2) (Entelexis paramagnoliae) (protein)", "chain": "MSSTYTLTRLSAPSMVLNSGSQIPAVGYGLWKQQGSEAKDSVRCAIESGYRHLDCATAYQNHKEVGQAIREAGVPRDELWITSKVWGTHFDNPEEGLDDILEELGVEYLDLLLLHLPVAFKRNPEDPKQLRGLPVDHDMKYADVWARMEKLPKSKVRNIGVSNLTVRALDELLQTAKVTPAVNQVEMHPNLPQKKLLDYCKSKGIVVQAYSPLAQGQHENPVVTDIADDLGVSPAQVVLSWGALRGTNILPKSSTPSRIRENLELIQLSDDHMRRIDALARR", "notes": "N-terminal GST fusion (pGEX-5X-3) in E. coli BL21 with chaperones, GST removed by Factor Xa"}}, "assay_type_in_all_cases": "biochemical, Entelexis paramagnoliae", "key": {"[1]": {"substrate": "NC(=O)C1=CN([C@@H]2O[C@H](COP(=O)(O)OP(=O)(O)OC[C@H]3O[C@@H](n4cnc5c(N)ncnc54)[C@H](OP(=O)(O)O)[C@@H]3O)[C@@H](O)[C@H]2O)C=CC1", "assay": "purified protein", "settings": "D-erythrose saturating, pH 5.5, 42 °C, varied: cofactor"}, "[2]": {"substrate": "O=Cc1ccc([N+](=O)[O-])cc1", "assay": "purified protein", "settings": "NADPH in excess, pH 5.5 and 42 °C (given for D-erythrose)"}, "[3]": {"substrate": "NC(=O)c1ccc[n+]([C@@H]2O[C@H](COP(=O)(O)OP(=O)(O)OC[C@H]3O[C@@H](n4cnc5c(N)ncnc54)[C@H](OP(=O)(O)O)[C@@H]3O)[C@@H](O)[C@H]2O)c1", "assay": "steady-state kinetics; reaction not stated", "settings": "co-substrate not given; NADP+-dependent erythritol oxidation stated as not observed; varied: cofactor", "text": "steady-state kinetics; reaction not stated on CmER (C. magnoliae JH110 erythrose reductase; CmER2 in Table 2)"}}, "data": [{"protein": "B1", "values": [{"measurement": "Km", "setting": "[1]", "value": "16 ± 10", "unit": "µM"}, {"measurement": "kcat", "setting": "[1]", "value": "48 ± 2.5", "unit": "s⁻¹"}, {"measurement": "kcat/Km", "setting": "[1]", "value": "3e+06", "unit": "M⁻¹ s⁻¹"}, {"measurement": "Km", "setting": "[2]", "value": "170 ± 10", "unit": "µM"}, {"measurement": "kcat", "setting": "[2]", "value": "1.4 ± 0.1", "unit": "s⁻¹"}, {"measurement": "kcat/Km", "setting": "[2]", "value": 8200, "unit": "M⁻¹ s⁻¹"}, {"measurement": "Km", "setting": "[3]", "value": "240 ± 40", "unit": "µM"}, {"measurement": "kcat", "setting": "[3]", "value": "0.84 ± 0.06", "unit": "s⁻¹"}, {"measurement": "kcat/Km", "setting": "[3]", "value": 3500, "unit": "M⁻¹ s⁻¹"}]}]}
